The assay concerns the target T1, human MSR1 (human, UniProt P21757 1-451).
T1 sequence (looked up): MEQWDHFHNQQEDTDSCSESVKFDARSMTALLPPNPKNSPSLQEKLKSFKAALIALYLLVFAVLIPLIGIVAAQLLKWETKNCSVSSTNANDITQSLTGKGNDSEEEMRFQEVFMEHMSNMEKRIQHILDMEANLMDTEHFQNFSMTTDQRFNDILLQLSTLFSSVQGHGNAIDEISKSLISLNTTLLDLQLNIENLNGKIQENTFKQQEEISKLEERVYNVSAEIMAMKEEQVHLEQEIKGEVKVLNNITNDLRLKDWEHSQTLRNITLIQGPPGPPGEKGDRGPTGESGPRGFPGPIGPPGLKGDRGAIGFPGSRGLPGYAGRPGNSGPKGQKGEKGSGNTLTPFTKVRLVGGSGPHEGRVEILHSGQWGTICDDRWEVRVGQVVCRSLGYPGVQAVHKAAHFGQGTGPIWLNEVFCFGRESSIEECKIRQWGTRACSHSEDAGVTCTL
The assay is described as follows: cell-based or functional assay.

The results in this text go back to patent publication WO2020146541A2 (dated 2020).

“And” between values parts separate entries of the source, which are not always exact repeats. Equal values may be shown once.

As to isotype control ADCs (antibody), the EC50, GR luciferase reporter activity in HEK293/GRLuc/MSR1 cells was more than 35 nM and the signal to noise (S/N), GR luciferase reporter in HEK293/GRLuc/MSR1 cells lay within 1.9 to 154.
The like results for isotype control ncADCs (antibody) were, in that order, more than 50 nM and 3.8 to 148.

B1: anti-MSR1 (H1H21234N-N297Q) ADCs (antibody, V domains shown)
VH: QVQLQESGPGLVKPSETLSLTCTVTGGSISRNYWSWIRQPPGKGLEWIGYIYYSGSIDYNPSLKSRVTISVDTSKNQFSLKLSSMTAADTAVYYCARDRWNWKYGMDVWGQGTTVIVSS
VL: EIVLTQSPGTLSLSPGERATLSCRASQTVRNNYLAWYHQKPGQAPRLLIYGASSRATGIPDRFSGSGSGTDFTLTISRLEPEDFTVYYCHQYGNSPWTFGQGTKMEIKR
modifications: linker-payload on glutamines Q295 and Q297 (N297Q, EU numbering) of the heavy chain constant region; four DAR
Turning to B1, the “EC50, GR luciferase reporter activity in HEK293/GRLuc/MSR1 cells” value is 0.636 nM and 3.96 nM.
